Test results: paper PMC7472415 (Viruses, 2020)

Columns and labels:
[1] = biological target: YFP-D/NP_TAIL, yellow fluorescent protein fused to the nucleoprotein tail of D/bovine/France/2986/20 (influenza D virus D/bovine/France/2986/2012); test: SPR
[2] = biological target: importin-α7 (Homo sapiens) (UniProt O60684); details: cited from earlier work
[3] = biological target: T1, human importin-α3 without its importin-β binding (IBB) domain (residues 64 to 521) (human, UniProt O00629 64-521); test: SPR; details: both partners purified
T1 construct: also called ΔIBB importin-α3; Imp-α3
T1 sequence (looked up): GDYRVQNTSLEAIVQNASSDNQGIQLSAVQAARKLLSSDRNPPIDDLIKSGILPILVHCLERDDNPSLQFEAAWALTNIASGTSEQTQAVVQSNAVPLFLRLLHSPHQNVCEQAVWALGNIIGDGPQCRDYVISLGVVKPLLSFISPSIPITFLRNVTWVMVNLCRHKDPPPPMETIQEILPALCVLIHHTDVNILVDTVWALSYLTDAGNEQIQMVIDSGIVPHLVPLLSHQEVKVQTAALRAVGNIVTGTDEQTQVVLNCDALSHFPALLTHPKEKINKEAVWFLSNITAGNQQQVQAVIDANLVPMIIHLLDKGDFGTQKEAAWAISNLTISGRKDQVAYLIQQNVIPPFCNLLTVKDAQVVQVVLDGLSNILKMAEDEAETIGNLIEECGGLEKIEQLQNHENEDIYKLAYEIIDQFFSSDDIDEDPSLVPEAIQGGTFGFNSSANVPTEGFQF

[4] = biological target: T2, human importin-α5 without its importin-β binding (IBB) domain (residues 66 to 538) (human, UniProt P52294 66-538); test: SPR; details: both partners purified
T2 construct: also called ΔIBB importin-α5; Imp-α5

[5] = biological target: T3, human importin-α7 without its importin-β binding (IBB) domain (residues 58 to 536) (human, UniProt O60684 58-536); test: SPR; details: both partners purified
T3 construct: also called ΔIBB importin-α7; Imp-α7

[6] = biological target: T1, human importin-α3 without its …; test: SPR; details: both partners purified; remark: listed apart in the source
[7] = biological target: T2, human importin-α5 without its …; test: SPR; details: both partners purified; remark: listed apart in the source
[8] = biological target: T3, human importin-α7 without its …; test: SPR; details: both partners purified; remark: listed apart in the source

T2 sequence (P52294 66-538): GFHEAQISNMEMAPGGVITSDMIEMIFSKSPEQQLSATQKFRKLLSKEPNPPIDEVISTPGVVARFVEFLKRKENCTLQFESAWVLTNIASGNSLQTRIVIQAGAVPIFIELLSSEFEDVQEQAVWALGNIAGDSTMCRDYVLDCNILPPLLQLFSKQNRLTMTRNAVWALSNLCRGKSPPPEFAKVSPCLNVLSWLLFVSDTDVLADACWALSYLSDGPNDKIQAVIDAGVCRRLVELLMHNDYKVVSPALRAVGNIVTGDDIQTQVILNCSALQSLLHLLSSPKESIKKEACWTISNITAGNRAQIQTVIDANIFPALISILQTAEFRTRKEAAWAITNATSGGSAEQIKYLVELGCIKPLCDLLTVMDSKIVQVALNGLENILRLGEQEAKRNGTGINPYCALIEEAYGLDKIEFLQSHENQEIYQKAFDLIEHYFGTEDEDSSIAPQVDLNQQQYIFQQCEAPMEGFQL
T3 sequence (O60684 58-536): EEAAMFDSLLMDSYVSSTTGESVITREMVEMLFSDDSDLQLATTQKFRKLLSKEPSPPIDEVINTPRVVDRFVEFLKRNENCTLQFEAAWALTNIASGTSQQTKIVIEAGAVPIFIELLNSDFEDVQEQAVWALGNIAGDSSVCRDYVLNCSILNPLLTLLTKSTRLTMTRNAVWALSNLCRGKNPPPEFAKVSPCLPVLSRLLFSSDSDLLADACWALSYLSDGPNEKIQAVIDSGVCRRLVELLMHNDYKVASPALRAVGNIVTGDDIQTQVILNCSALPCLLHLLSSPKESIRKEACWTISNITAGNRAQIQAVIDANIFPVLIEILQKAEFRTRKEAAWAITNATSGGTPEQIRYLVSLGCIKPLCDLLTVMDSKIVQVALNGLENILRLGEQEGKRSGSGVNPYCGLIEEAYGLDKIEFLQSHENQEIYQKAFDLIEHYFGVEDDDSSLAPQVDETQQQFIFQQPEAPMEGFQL

## human importin-α3 without its importin-β binding (IBB) domain (residues 64 to 521) (from UniProt O00629 64-521) (domain or fragment)
[1]
  Kd: 22 nM
  koff: 0.007 s⁻¹
  kon: 2.8e+06 M⁻¹ s⁻¹

## human importin-α5 without its importin-β binding (IBB) domain (residues 66 to 538) (from UniProt P52294 66-538) (domain or fragment)
[1]
  Kd: 21 nM
  koff: 0.5 s⁻¹
  kon: 1.1e+06 M⁻¹ s⁻¹

## human importin-α7 without its importin-β binding (IBB) domain (residues 58 to 536) (from UniProt O60684 58-536) (domain or fragment)
[1]
  Kd: 29 nM
  koff: 0.104 s⁻¹
  kon: 5e+06 M⁻¹ s⁻¹

## influenza B nucleoprotein NPTAIL (30-71) (from UniProt P13885)
[2]
  Kd: 844 nM

B1: B/NP_TAIL-YFP, nucleoprotein tail of B/Memphis/13/03 (residues 1 to 71) fused to yellow fluorescent (domain or fragment)
chain: MSNMDIDGINTGTIDKTPEEITSGTSGTTRPIIRPATLAPPSNKRTRNPSPERATTSSEADVGRKTQKKQT
[3]
  koff: > 1 s⁻¹
  kon: > 1e+07 M⁻¹ s⁻¹
[4]
  koff: > 1 s⁻¹
  kon: > 1e+07 M⁻¹ s⁻¹
[5]
  koff: > 1 s⁻¹
  kon: > 1e+07 M⁻¹ s⁻¹
[6]
  Kd: 308 ± 106 nM
[7]
  Kd: 770 ± 24 nM
[8]
  Kd: 405 ± 5 nM
